These results are taken from the supplement of paper PMC9112550, “Optimization of the antimicrobial peptide Bac7 by deep mutational scanning” (BMC Biology, 2022).
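Note: peptides expressed intracellularly from a pBAD plasmid library in pooled LB shake-flask culture, induced with 0.3% L-arabinose, DNA abundance read by NGS, three biological replicates, DESeq2 with apeglm shrinkage.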

In this series the test system is Escherichia coli TOP10. Description: shrunken log2 fold change of peptide-encoding DNA abundance (4.5 h post-induction vs induction); higher = less antimicrobial activity (less host growth inhibition). The conditions noted are these: time post-induction: 4.5 h; library: site-saturation at positions 5, 18, 19, 20.
RRIRRRPPRLPRPRPRPIKSPRP: the “shrunken log2 fold change” value is -0.254.

As to RRIRIRPPRLPRPRPRPDSHPRP, the “shrunken log2 fold change” value was -0.379.

On to RRIRSRPPRLPRPRPRPRLAPRP, for which the “shrunken log2 fold change” value was 0.45.

In the case of RRIRSRPPRLPRPRPRPYVDPRP, the “shrunken log2 fold change” value was -0.594.

With RRIRRRPPRLPRPRPRPVFLPRP, the “shrunken log2 fold change” value turned out to be 0.0173.

As for RRIRYRPPRLPRPRPRPPTDPRP, the “shrunken log2 fold change” value was -0.181.

RRIRVRPPRLPRPRPRPYNCPRP: the “shrunken log2 fold change” value was -0.432.

For the sequence RRIRRRPPRLPRPRPRPAIPPRP, the “shrunken log2 fold change” value is -0.0158.

Regarding RRIRVRPPRLPRPRPRPAERPRP, the “shrunken log2 fold change” value is -0.0583.

With RRIRKRPPRLPRPRPRPTHPPRP, the “shrunken log2 fold change” value was 0.932.

As to RRIRSRPPRLPRPRPRPCMSPRP, the “shrunken log2 fold change” value is -0.348.

For the sequence RRIRVRPPRLPRPRPRPTFTPRP, the “shrunken log2 fold change” value was -0.073.

Turning to RRIRRRPPRLPRPRPRPSIYPRP, the “shrunken log2 fold change” value is -0.449.

Turning to RRIRLRPPRLPRPRPRPVDTPRP, the “shrunken log2 fold change” value was -0.142.

In the case of RRIRSRPPRLPRPRPRPPYRPRP, the “shrunken log2 fold change” value is -0.119.

On to RRIRIRPPRLPRPRPRPWFRPRP, for which the “shrunken log2 fold change” value is -0.129.

As to RRIRVRPPRLPRPRPRPKDNPRP, the “shrunken log2 fold change” value is -0.438.

As for RRIRCRPPRLPRPRPRPNDLPRP, the “shrunken log2 fold change” value came to 0.0432.

For the sequence RRIRCRPPRLPRPRPRPCKQPRP, the “shrunken log2 fold change” value was -0.0357.

RRIRGRPPRLPRPRPRPQVAPRP: the “shrunken log2 fold change” value stood at 0.34.

For the sequence RRIRCRPPRLPRPRPRPPCIPRP, the “shrunken log2 fold change” value came out at 0.0428.

As to RRIRCRPPRLPRPRPRPSAQPRP, the “shrunken log2 fold change” value came to 0.336.

Turning to RRIRDRPPRLPRPRPRPMHQPRP, the “shrunken log2 fold change” value came out at 0.126.

Take RRIRKRPPRLPRPRPRPTKAPRP: the “shrunken log2 fold change” value was 0.647.

Take RRIRHRPPRLPRPRPRPAVKPRP: the “shrunken log2 fold change” value is -0.0915.

Regarding RRIRNRPPRLPRPRPRPPPPPRP, the “shrunken log2 fold change” value turned out to be 1.25.

RRIRERPPRLPRPRPRPTTWPRP: the “shrunken log2 fold change” value was determined as 0.0447.

For the sequence RRIRPRPPRLPRPRPRPQSVPRP, the “shrunken log2 fold change” value was -0.0354.

Consider RRIRERPPRLPRPRPRPQYHPRP, for which the “shrunken log2 fold change” value was -0.172.

For the sequence RRIRFRPPRLPRPRPRPDDVPRP, the “shrunken log2 fold change” value is -0.0133.

RRIRYRPPRLPRPRPRPLMVPRP: the “shrunken log2 fold change” value is -0.439.

Consider RRIRCRPPRLPRPRPRPRESPRP, for which the “shrunken log2 fold change” value worked out at 0.155.

In the case of RRIRHRPPRLPRPRPRPKVQPRP, the “shrunken log2 fold change” value came to 0.146.

In the case of RRIRTRPPRLPRPRPRPKDSPRP, the “shrunken log2 fold change” value amounted to 0.0052.

Turning to RRIRQRPPRLPRPRPRPPISPRP, the “shrunken log2 fold change” value was -0.187.

With RRIRYRPPRLPRPRPRPWKIPRP, the “shrunken log2 fold change” value is -0.245.

With RRIRIRPPRLPRPRPRPYCYPRP, the “shrunken log2 fold change” value was -0.0959.

Consider RRIRFRPPRLPRPRPRPHPDPRP, for which the “shrunken log2 fold change” value is -0.262.

Consider RRIRGRPPRLPRPRPRPKWTPRP, for which the “shrunken log2 fold change” value was 0.392.

Take RRIRERPPRLPRPRPRPAHRPRP: the “shrunken log2 fold change” value was 0.0394.

For RRIRLRPPRLPRPRPRPCQQPRP, the “shrunken log2 fold change” value is -0.047.

In the case of RRIRVRPPRLPRPRPRPECGPRP, the “shrunken log2 fold change” value was 0.691.

Turning to RRIRERPPRLPRPRPRPYTEPRP, the “shrunken log2 fold change” value came out at 0.0251.

As for RRIRYRPPRLPRPRPRPVIMPRP, the “shrunken log2 fold change” value was -0.222.

In the case of RRIRARPPRLPRPRPRPGGFPRP, the “shrunken log2 fold change” value was 0.518.

Consider RRIRWRPPRLPRPRPRPTWPPRP, for which the “shrunken log2 fold change” value stood at 0.466.

With RRIRKRPPRLPRPRPRPIINPRP, the “shrunken log2 fold change” value is 0.172.

RRIRSRPPRLPRPRPRPAMHPRP: the “shrunken log2 fold change” value is -0.0199.

RRIRTRPPRLPRPRPRPPQAPRP: the “shrunken log2 fold change” value is 0.121.

As for RRIRKRPPRLPRPRPRPGEPPRP, the “shrunken log2 fold change” value turned out to be 0.305.
